Data taken from publication PMC3548456.

Target: CI-MPR domains 10-13, receptor construct 1288 (wild-type IGF-II binding domain) (human) (UniProt P11717)
Assay: SPR

Chain of CI-MPR domains 10-13, receptor construct 1288 (wild-type IGF-II binding domain) (human) (P11717 1363-1988): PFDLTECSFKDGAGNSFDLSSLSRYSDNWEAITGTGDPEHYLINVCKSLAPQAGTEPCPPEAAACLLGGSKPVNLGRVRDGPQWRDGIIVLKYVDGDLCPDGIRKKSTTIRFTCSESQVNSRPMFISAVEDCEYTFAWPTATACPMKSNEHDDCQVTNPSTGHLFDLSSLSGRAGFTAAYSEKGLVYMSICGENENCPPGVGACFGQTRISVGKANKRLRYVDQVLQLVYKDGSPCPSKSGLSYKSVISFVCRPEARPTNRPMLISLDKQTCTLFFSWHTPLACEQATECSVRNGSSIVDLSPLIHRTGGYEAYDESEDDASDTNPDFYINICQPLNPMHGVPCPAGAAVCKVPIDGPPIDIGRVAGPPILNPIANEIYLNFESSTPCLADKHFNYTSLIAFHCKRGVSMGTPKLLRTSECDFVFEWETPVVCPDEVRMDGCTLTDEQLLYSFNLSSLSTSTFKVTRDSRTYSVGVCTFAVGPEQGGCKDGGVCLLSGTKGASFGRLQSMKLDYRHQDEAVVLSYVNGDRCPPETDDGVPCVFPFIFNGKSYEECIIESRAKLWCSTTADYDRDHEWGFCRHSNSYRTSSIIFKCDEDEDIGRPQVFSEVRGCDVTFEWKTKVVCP

Substance: GILT-tagged GAA (BMN 701) (from UniProt P01344 32-91; P10253 70-952) (enzyme)
- Kd: 21 nM
- koff: 0.0058 s⁻¹

Substance: full-length recombinant IGF-II (ligand)
- Kd: 8.8 nM
- koff: 0.0034 s⁻¹
